Molecular target: glutamate metabotropic receptor 3 (GRM3), endogenous (mouse (endogenous in GT1-7 neurons and …, UniProt Q9QYS2 23-879))
Test: cell-based or functional assay

Sequence of glutamate metabotropic receptor 3 (GRM3), endogenous (mouse (Q9QYS2 23-879): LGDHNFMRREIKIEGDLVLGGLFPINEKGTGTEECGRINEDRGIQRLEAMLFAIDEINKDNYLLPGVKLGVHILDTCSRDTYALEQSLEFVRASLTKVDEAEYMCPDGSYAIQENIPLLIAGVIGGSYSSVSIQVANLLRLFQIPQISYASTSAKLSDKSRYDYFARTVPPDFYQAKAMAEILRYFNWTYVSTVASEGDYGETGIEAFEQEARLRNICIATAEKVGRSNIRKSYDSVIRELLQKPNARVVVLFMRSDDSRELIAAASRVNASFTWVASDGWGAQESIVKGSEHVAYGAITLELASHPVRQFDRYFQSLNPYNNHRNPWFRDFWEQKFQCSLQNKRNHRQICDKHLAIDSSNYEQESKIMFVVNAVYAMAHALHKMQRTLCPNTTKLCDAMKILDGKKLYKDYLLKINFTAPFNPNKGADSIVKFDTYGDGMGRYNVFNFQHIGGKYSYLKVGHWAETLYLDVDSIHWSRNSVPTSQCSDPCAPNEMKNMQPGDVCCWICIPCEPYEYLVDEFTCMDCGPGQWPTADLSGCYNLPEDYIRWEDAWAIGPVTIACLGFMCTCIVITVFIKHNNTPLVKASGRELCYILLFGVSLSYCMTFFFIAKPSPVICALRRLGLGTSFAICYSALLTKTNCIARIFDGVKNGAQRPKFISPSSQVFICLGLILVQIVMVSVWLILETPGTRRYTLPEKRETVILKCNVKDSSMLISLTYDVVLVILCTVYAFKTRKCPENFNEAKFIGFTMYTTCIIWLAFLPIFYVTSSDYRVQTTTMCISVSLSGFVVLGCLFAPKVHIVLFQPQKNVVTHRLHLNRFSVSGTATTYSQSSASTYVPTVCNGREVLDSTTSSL

B1: recombinant mouse Raptin protein with a His-tag (ligand)
chain: AEELHYPQGEHRADYDREALLGVQEDVDEYVKLGHEEQQRRLQSIIKKIDSDSDGFLTENELSQWIQMSFKHYAMQEAKQQFVEYDKNSDGAVTWDEYNIQMYDRVIDFDENTALDDTEEGSFRQLHLKDKKRFEKANQDSGPGLSLEEFIAFEHPEEVDYMTEFVIQEALEEHDKNGDGFVSLEEFLGDYRRDPTANEDPEWILVEKDRFVNDYDKDNDGR
p-AKT accumulation in GT1-7 cells expressing GRM3 (EC50 of Raptin): 0.31 ng/mL

From article PMC11909135, “Raptin, a sleep-induced hypothalamic hormone, suppresses appetite and obesity” (Cell Research, 2025)
